Assays:
[1] = biological target: T1, human LRP6 ECD, Fc-tagged (human, UniProt O75581 20-1370); assay: BLI kinetics, human LRP6 ECD
T1 construct: extracellular domain; Bought; also called LRP co-receptor; not shown: Fc tag of the purchased fusion
T1 sequence (looked up): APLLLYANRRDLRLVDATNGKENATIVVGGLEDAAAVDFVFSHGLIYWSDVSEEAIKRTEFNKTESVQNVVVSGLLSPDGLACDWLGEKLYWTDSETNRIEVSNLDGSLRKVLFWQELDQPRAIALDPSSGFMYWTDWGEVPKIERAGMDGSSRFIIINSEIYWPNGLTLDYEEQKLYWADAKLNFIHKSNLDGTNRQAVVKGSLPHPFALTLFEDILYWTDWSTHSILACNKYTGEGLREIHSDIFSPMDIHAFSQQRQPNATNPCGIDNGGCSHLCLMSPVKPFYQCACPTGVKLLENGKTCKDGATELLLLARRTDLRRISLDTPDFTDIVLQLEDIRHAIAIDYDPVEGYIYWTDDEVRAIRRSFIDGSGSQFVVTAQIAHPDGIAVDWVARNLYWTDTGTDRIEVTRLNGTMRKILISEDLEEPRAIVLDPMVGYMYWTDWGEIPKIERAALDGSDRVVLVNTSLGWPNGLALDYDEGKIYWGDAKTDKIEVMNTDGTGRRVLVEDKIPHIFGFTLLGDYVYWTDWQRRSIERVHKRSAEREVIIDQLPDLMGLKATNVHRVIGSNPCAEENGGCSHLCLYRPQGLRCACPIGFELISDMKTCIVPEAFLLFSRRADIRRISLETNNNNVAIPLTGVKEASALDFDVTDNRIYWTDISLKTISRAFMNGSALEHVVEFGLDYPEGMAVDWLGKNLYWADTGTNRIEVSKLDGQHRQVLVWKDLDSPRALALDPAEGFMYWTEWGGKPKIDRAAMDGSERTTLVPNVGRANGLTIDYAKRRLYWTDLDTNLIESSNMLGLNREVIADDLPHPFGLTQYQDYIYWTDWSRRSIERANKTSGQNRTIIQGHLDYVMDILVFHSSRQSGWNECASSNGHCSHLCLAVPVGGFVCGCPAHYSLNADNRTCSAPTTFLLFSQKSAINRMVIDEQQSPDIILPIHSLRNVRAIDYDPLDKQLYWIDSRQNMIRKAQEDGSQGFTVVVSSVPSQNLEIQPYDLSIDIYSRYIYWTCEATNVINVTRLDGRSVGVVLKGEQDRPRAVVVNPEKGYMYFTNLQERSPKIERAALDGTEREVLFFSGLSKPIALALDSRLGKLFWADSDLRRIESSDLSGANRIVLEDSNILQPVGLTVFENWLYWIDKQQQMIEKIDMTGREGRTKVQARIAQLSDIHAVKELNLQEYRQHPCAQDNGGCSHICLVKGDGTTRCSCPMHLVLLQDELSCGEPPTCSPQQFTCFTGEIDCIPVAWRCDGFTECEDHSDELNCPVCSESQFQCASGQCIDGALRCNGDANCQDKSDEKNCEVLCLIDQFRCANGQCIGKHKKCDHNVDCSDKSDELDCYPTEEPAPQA

[2] = biological target: T2, FZD9 CRD, Fc-tagged (human, UniProt O00144 23-187); assay: kinetic table (called BLI in paragraph 35)
T2 construct: domain: CRD; Bought; not shown: Fc tag of the purchased fusion
T2 sequence (looked up): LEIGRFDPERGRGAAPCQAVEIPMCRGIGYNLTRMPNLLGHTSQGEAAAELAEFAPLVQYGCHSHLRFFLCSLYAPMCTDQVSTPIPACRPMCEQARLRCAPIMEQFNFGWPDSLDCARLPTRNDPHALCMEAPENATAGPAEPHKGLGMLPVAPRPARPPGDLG

[3] = biological target: T3, FZD10 CRD, Fc-tagged (human, UniProt Q9ULW2 21-161); assay: kinetic table (called BLI in paragraph 35)
T3 construct: domain: CRD; Bought; not shown: Fc tag of the purchased fusion
T3 sequence (looked up): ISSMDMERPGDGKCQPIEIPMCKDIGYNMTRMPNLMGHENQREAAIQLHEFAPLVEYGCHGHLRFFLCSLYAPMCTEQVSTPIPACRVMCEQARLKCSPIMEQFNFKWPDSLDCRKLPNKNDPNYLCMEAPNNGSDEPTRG

[4] = biological target: FcRn (UniProt P55899 24-297; P61769 21-119); assay: steady-state BLI at pH 6.0, FcRn immobilised, serial dilutions (0.1-225 nM) of the FLAg in solution
Method: (§1) Coated sensors were equilibrated in assay buffer (PBS, 1% BSA, 0.05% Tween20) and transferred into Fc receptor solutions. Association was monitored for 600 seconds, the sensors were transferred to assay buffer, and dissociation was monitored for 600 seconds. CD64 and all other Fc receptors were assayed at 50 nM or 300 nM, respectively, at pH 7.4, unless as indicated. Shake speed was 1000 rpm and temperature was 25° C. End-point response values were taken at the end of the association phase and were normalized to isotype controls. […] The association and disassociation times were 600 or 1200 seconds, respectively.

[5] = biological target: T4, C1q (UniProt P02745 23-245; P02746 28-253; P02747 29-245); assay: BLI end point: IgG1, FLAg or Fab immobilised on the sensor, receptor in solution (300 nM; CD64 50 nM), signal normalised to the isotype control
T4 construct: also called complement (C1q); Clq
Method: as §1

[6] = biological target: T5, CD64 (UniProt P12314 16-288); assay: as above
T5 construct: also called monocyte and macrophage marker CD64
T5 sequence (P12314 16-288 limits assumed): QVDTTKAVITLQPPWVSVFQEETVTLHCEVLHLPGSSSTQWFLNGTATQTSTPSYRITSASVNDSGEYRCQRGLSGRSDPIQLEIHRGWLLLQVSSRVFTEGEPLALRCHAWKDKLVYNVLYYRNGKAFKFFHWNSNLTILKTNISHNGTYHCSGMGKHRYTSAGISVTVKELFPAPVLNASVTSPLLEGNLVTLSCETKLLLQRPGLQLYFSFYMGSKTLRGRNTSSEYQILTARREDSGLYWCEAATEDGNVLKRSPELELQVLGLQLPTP
Method: as §1

T4 sequence (P02745 23-245 limits assumed, chain 1 of 3): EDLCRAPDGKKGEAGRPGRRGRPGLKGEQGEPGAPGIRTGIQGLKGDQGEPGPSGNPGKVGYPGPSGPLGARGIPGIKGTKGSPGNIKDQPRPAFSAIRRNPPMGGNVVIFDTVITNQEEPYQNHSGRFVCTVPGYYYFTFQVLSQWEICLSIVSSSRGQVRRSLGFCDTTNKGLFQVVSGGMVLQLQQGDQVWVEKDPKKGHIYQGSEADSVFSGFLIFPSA
T4 sequence (P02746 28-253 limits assumed, chain 2 of 3): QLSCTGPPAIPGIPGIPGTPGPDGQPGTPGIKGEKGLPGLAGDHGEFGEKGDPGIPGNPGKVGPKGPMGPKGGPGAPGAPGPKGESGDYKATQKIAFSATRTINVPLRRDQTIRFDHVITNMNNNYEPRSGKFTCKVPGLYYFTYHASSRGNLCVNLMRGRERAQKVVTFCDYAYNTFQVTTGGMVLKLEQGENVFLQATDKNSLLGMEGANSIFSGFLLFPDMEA
T4 sequence (P02747 29-245 limits assumed, chain 3 of 3): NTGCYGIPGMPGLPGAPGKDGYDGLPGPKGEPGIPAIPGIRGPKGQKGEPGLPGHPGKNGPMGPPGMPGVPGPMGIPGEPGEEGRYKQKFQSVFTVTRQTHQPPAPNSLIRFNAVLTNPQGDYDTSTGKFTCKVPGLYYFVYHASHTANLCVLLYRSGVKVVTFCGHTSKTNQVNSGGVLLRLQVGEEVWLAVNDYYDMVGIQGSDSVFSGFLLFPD
Chain of FcRn (P55899 24-297 limits assumed, chain 1 of 2): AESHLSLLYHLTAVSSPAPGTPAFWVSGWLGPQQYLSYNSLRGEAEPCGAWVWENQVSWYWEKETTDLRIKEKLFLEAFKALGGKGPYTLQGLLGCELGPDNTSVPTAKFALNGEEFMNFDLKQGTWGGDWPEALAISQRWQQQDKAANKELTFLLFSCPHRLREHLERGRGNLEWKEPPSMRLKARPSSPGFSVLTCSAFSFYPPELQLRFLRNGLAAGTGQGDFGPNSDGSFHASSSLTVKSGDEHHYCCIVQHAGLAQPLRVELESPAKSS
Chain of FcRn (P61769 21-119 limits assumed, chain 2 of 2): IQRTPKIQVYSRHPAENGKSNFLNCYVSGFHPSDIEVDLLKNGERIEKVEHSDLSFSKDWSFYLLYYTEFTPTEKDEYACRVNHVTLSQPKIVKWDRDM

B1: F^P+P-L6^1+3 (5019-K/H-2539-2542) (bispecific antibody)
chain 1: EVQLVESGGGLVQPGGSLRLSCAASGFNIGSSSIHWVRQAPGKGLEWVASIYSAFASTSYADSVKGRFTISADTSKNTAYLQMNSLRAEDTAVYYCARYHFPFGFALDYWGQGTLVTVSSGGGGSDIQMTQSPSSLSASVGDRVTITCRASQSVSSAVAWYQQKPGKAPKLLIYSASSLYSGVPSRFSGSRSGTDFTLTISSLQPEDFATYYCQQGVYLFTFGQGTKVEIKLEDKTHTKVEPKTSDKTHTCPPCPAPELLGGPSVFLFPPKPKDTLMISRTPEVTCVVVDVSHEDPEVKFNWYVDGVEVHNAKTKPREEQYNSTYRVVSVLTVLHQDWLNGKEYKCKVSNKALPAPIEKTISKAKGQPREPMVFDLPPSREEMTKNQVSLWCMVKGFYPSDIAVEWESNGQPENNYKTTPPVLDSDGSFFLYSKLTVDKSRWQQGNVFSCSVMHEALHNHYTQKSLSLSPGKSGSETPGTSESATPESGGGEVQLVESGGGLVQPGGSLRLSCAASGFNISYSSIHWVRQAPGKGLEWVAYISSYYGYTYYADSVKGRFTISADTSKNTAYLQMNSLRAEDTAVYYCARAHYFPWAGAMDYWGQGTLVTVSSGGGGSDIQMTQSPSSLSASVGDRVTITCRASQSVSSAVAWYQQKPGKAPKLLIYSASSLYSGVPSRFSGSRSGTDFTLTISSLQPEDFATYYCQQYYWPITFGQGTKVEIK
chain 2: EVQLVESGGGLVQPGGSLRLSCAASGFNIGSSSIHWVRQAPGKGLEWVASIYSAFASTSYADSVKGRFTISADTSKNTAYLQMNSLRAEDTAVYYCARYHFPFGFALDYWGQGTLVTVSSGGGGSDIQMTQSPSSLSASVGDRVTITCRASQSVSSAVAWYQQKPGKAPKLLIYSASSLYSGVPSRFSGSRSGTDFTLTISSLQPEDFATYYCQQGVYLFTFGQGTKVEIKLEDKTHTKVEPKSSDKTHNCPPCPAPELLGGPSVFLFPPKPKDTLMISRTPEVTCVVVDVSHEDPEVKFNWYVDGVEVHNAKTKPREEQYNSTYRVVSVLTVLHQDWLNGKEYKCKVSNKALPAPIEKTISKAKGQPREPQVYTLPPIRELMTSNQVSLSCAVKGFYPSDIAVEWESNGQPENNYKTTPPVLDSDGSFFLVSKLTVDKSRWQQGNVFSCSVMHEALHNHYTQKSLSLSPGKSGSETPGTSESATPESGGGEVQLVESGGGLVQPGGSLRLSCAASGFNISSYYIHWVRQAPGKGLEWVASIYSSYGYTSYADSVKGRFTISADTSKNTAYLQMNSLRAEDTAVYYCARTVRGSKKPYFSGWAMDYWGQGTLVTVSSGGGGSDIQMTQSPSSLSASVGDRVTITCRASQSVSSAVAWYQQKPGKAPKLLIYSASSLYSGVPSRFSGSRSGTDFTLTISSLQPEDFATYYCQQYSWGPFTFGQGTKVEIK
Kd [1]: 0.012 µM
binding result [2]: no binding
binding result [3]: no binding
EC50 (read off the curve) [4]: ~0.01 µM
binding result [5]: binds
binding result [6]: binds

From patent publication US20210032352A1 (ANTERA THERAPEUTICS, published 2021)
